Consider five molecules from US20240043507A1 (RQ BIOTECHNOLOGY, published 2024).

The target of test [1] is T1, SARS-CoV-2 spike on whole virus (SARS-CoV-2/human/AUS/VIC01/2020, Victoria) (SARS-CoV-2, UniProt P0DTC2 14-1273).
The target of test [2] is T1, SARS-CoV-2 spike on whole virus …. In words: cell-based or functional assay.

B1: mAb 316 (antibody, V domains shown)
VH: not shown
VL: QAVLTQPPSASGSPGQSVTISCTGTSSDVGGYNYVSWYQQHPGKAPKLMIYEVSKRPSGVPDRFSGSKSGNTASLTVSGLQAEDEADYYCSSYAGSNHWVFGGGTKLTVL
Consider B1, for which the EC50 (read off the curve) (commonly the concentration that produces a half-maximal response) in test [1] is around 0.1 nM. The “Neutralisation IC50 (FRNT)” value in test [2] came to 0.01 µg/mL.

B2: mAb 253H165L (antibody, V domains shown)
VH: not shown
VL: DIVMTQSPGTLSLSPGERATLSCRASQSVRSSYLAWYQQKPGQAPRLLIYGASRRGTGIPDRFSGSGSGTDFTLTISRLEPEDFAVYYCQQYGSSPWTFGQGTKVEIK
For B2, the “EC50 (read off the curve)” value in test [1] is around 0.1 nM. Moreover, in test [2], the “Neutralisation IC50 (FRNT)” value was 0.003 µg/mL.

B3: mAb 88 (antibody, V domains shown)
VH: QLQLQESGPGLVKPSQTLSLTCTVSGGSISSGSYNWTWIRQPAGKGLEWIGRIYNSGSTNYNPSLKSRVTISVDTSKNQLSLKVRSVTAADTAVYYCARHCSGGTCYPKYYYGMDVWGQGTTVTVSS
VL: QSALTQPPSVSEAPRQRVTISCSGSSSNIGNNAVNWYQQFPGKAPKLLIYYDDLLPSGVSDRFSGSKSGTSASLAISGVQSEDEADYYCAAWDDSLNVVVFGGGTKLTVL
As for B3, the “EC50 (read off the curve)” value in test [1] is around 0.2 nM.

B4: mAb 40 (antibody, V domains shown)
VH: QVQLVESGGGLVQPGGSLRLSCAVSGFTVSRNYMSWVRQAPGKGLEWVSLIYSGGSTFYADSVKGRFTISRDNSKNTLYLQMNSLRAEDTAVYYCARDLFHRSGYHDYWGQGTLVTVSS
VL: not shown
Consider B4, for which, in test [1], the “EC50 (read off the curve)” value was around 0.3 nM.

B5: mAb 158 (antibody, V domains shown)
VH: EVQLLESGGDLIQPGGSLRLSCAASGVTVSSNYMSWVRQAPGKGLEWVSIIYPGGSTFYADSVKGRFTISRDNSKNTLYLQMHSLRAEDTAVYYCARDLGSGDMDVWGKGTTVTVSS
VL: DIVMTQSPSFLSASVGDRVTITCRASQGISSYLAWYQQKPGKAPKLLIQAASTLQSGVPSRFSGSGSGTEFTLTISSLQPEDFATYYCQQLNSYRYTFGQGTKVEIK
Take B5: in test [1], the “EC50 (read off the curve)” value was around 0.5 nM. Besides, the “Neutralisation IC50 (FRNT)” value in test [2] amounted to 0.034 µg/mL.
